Patent US6770739B1, “Enhancers of CFTR chloride channel function” (Case Western Reserve University, priority 1999, dated 2004)

Tests used:
[1] = molecular target: T1, wt-CFTR channel (Homo sapiens, UniProt P13569); assay: Single channel recording of wt-CFTR reconstituted in planar lipid bilayer; assay type: biochemical
T1 construct: made in house; host or cells: 293-EBNA HEK cells (Invitrogen), transient transfection with pCEP4(wt); microsomal membrane vesicles
Method: (§1) To test whether the NEG2 region is responsible for both stimulatory and inhibitory interactions between the R domain and other domains, synthetic NEG2, a 22 amino acid peptide, was added to the cis-intracellular side of single CFTR channels captured in the planar lipid bilayer (FIG. 3). […] After peptide addition, there are periods of intense stimulation that last 4 to 8 minutes. These stimulatory periods are followed by either a return to the basal level of activity before peptide addition, or by an almost complete inhibition of the channel, where only a flickery 3 pS conductance is observed.
In order to understand the mechanism responsible for the increase in open probability, the gating kinetics of wt-CFTR without peptide and during stimulation by synthetic NEG2 were analyzed. […] Thus, the increase in the open probability is not due to a change in the closing rate of the channel. However, the closed time distribution for the stimulated channel is clearly shifted to the left compared to the control channel (FIG. 4B). There are three components to the closed state, a fast (τc1), an intermediate (τc2) and a long (τc3) closed component. The fast closed component is probably due to closings within a burst (Carson et al., 1995). Therefore, to identify better the closed times between bursts, a delimiter of τc=40 ms was set at the nadir between the fast and intermediate closed times (illustrated by the arrow in FIG. 4B) to generate the closed-burst duration histograms. […] Thus, the interaction of NEG2 with CFTR increased the intermediate-opening rate of the channel. This increase in opening rate is similar to that observed when the phosphorylated R domain protein (amino acids 645-834) was added to CFTR-ΔR/S660A in excised, inside-out patches (Winter and Welsh, 1997). Additionally, modification of C832, which resides within NEG2, by N-ethylrnaleimide (NEM) results in irreversible stimulation of PKA-phosphorylated CFTR chloride channel activity (Cotten and Welsh, 1997), further emphasizing the importance of NEG2 in CFTR regulation.
A human embryonic kidney cell line (293-EBNA HEK; Invitrogen) was used for transfection and expression of the CFTR proteins (Ma et al., 1997, Ma et al., 1996, Xie et al., 1995). The HEK-293 cell line contains a pCMV-EBNA vector, which constitutively expresses the Epstein-Barr virus nuclear antigen-1 (EBNA-1) gene product and increases the transfection efficiency of Epstein-Barr virus-based vectors. The cells were maintained in Dulbecco's Modified Eagle Medium with 10% FBS and 1% L-glutamine. Geneticin (G418, 250 (g/ml) was added to the cell culture medium to maintain selection of the cells containing the pCMV-EBNA vector. Lipofectamine reagent (Life Technologies, Inc) in Optimem media (serum-free) was used to transfect the HEK-293 cells with pCEP4(wt), pCEP4(ΔNEG1), or pCEP4(ΔNEG2). After 5 hours, serum was added to the media (10% final serum concentration). Twenty-four hours after transfection, the transfection media was replaced with fresh media. The cells were harvested two days after transfection and microsomal membrane vesicles were prepared for single channel measurements in the lipid bilayer reconstitution system.
HEK-293 cells transfected with pCEP4(CFTR) were harvested and homogenized using a combination of hypotonic lysis and Dounce homogenization in the presence of protease inhibitors (Ma et al., 1997, Ma et al., 1996, Xie et al., 1995). Microsomes were collected by centrifugation of postnuclear supernatant (4500×g, 15 min) at 100,000×g for 20 min and resuspended in a buffer containing 250 mM sucrose, 10 mM HEPES, pH 7.2. The membrane vesicles were stored at −75° C. until use.
The 22 amino acid peptide corresponding to NEG2 was custom made by Quality Controlled Biochemicals, Inc. The peptide was resuspended in water to a concentration of 1 mg/ml and pH was adjusted to a physiological range (7.2-7.4) using KOH and HCl. […]

[2] = molecular target: T2, ΔNEG2-CFTR channel (Homo sapiens, UniProt P13569, DEL817-838); assay: Single channel recording of ΔNEG2-CFTR reconstituted in planar lipid bilayer; assay type: biochemical; details: 0.44 μM NEG2 peptide, −80 mV, 2 mM ATP, no PKA
T2 construct: made in house; host or cells: 293-EBNA HEK cells (Invitrogen), transient transfection with pCEP4(ΔNEG2); microsomal membrane vesicles
Source text: Single channel measurements indicate that the ΔNEG1-CFTR channel is similar to wt-CFTR in its PKA dependence. No chloride channels are observed in the absence of PKA (FIG. 2A) and the open probability in the presence of PKA and ATP is similar to wt-CFTR. In contrast, the ΔNEG2-CFTR channel opens without PKA (FIG. 2A). The constitutive activity of the ΔNEG2-CFTR channel is unlikely to be due to the endogenous phosphorylation of the ΔNEG2-CFTR protein, since protein phosphatase 2A, which decreases activity of the wt-CFTR opened by PKA and ATP (Ma et al., 1997), has no effect on the ΔNEG2-CFTR channel (n=4).
as §1, with “observed. […]” for “observed.”

[3] = peptide-stimulated, 4.4 μM NEG2 peptide, −80 mV

T1 sequence (P13569 whole entry): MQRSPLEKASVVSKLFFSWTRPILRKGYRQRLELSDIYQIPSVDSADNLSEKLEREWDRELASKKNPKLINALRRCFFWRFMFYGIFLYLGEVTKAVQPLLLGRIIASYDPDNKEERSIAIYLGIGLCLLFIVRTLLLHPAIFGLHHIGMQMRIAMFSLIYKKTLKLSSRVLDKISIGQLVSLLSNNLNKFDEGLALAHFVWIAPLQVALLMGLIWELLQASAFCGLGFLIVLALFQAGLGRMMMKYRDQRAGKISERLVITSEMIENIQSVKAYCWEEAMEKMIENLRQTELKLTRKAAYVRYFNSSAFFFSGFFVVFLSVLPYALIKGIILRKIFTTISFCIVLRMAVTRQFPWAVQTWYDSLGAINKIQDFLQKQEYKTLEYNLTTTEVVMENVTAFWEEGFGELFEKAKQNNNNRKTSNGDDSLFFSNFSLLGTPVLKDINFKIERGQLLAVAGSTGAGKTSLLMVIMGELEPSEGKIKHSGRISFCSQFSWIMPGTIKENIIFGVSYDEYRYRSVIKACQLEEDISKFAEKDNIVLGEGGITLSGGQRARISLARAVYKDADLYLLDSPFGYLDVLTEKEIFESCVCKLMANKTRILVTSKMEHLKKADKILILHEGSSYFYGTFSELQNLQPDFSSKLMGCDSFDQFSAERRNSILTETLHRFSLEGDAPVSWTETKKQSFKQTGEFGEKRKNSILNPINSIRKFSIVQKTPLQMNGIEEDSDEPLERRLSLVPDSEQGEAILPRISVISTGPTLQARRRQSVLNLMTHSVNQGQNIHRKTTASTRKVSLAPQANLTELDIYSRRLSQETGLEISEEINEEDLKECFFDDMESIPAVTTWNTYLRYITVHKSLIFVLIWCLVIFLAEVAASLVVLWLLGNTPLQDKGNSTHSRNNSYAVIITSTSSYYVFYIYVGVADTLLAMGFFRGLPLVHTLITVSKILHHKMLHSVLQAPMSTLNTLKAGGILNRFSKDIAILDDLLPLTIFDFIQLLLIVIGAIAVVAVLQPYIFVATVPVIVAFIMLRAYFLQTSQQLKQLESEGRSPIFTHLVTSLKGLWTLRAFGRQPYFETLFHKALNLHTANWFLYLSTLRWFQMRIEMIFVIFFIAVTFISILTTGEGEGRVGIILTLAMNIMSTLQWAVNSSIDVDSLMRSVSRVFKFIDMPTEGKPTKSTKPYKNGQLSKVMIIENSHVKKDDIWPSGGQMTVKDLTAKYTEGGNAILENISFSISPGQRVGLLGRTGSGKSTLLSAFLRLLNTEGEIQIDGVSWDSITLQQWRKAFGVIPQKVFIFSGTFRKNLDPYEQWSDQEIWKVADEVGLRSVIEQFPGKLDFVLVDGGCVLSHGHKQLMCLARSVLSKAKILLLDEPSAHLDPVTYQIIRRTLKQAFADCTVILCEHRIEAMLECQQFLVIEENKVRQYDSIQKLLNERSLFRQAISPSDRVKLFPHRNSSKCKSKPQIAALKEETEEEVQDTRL
T2 sequence (P13569 with tags, fused parts or gaps DEL817-838): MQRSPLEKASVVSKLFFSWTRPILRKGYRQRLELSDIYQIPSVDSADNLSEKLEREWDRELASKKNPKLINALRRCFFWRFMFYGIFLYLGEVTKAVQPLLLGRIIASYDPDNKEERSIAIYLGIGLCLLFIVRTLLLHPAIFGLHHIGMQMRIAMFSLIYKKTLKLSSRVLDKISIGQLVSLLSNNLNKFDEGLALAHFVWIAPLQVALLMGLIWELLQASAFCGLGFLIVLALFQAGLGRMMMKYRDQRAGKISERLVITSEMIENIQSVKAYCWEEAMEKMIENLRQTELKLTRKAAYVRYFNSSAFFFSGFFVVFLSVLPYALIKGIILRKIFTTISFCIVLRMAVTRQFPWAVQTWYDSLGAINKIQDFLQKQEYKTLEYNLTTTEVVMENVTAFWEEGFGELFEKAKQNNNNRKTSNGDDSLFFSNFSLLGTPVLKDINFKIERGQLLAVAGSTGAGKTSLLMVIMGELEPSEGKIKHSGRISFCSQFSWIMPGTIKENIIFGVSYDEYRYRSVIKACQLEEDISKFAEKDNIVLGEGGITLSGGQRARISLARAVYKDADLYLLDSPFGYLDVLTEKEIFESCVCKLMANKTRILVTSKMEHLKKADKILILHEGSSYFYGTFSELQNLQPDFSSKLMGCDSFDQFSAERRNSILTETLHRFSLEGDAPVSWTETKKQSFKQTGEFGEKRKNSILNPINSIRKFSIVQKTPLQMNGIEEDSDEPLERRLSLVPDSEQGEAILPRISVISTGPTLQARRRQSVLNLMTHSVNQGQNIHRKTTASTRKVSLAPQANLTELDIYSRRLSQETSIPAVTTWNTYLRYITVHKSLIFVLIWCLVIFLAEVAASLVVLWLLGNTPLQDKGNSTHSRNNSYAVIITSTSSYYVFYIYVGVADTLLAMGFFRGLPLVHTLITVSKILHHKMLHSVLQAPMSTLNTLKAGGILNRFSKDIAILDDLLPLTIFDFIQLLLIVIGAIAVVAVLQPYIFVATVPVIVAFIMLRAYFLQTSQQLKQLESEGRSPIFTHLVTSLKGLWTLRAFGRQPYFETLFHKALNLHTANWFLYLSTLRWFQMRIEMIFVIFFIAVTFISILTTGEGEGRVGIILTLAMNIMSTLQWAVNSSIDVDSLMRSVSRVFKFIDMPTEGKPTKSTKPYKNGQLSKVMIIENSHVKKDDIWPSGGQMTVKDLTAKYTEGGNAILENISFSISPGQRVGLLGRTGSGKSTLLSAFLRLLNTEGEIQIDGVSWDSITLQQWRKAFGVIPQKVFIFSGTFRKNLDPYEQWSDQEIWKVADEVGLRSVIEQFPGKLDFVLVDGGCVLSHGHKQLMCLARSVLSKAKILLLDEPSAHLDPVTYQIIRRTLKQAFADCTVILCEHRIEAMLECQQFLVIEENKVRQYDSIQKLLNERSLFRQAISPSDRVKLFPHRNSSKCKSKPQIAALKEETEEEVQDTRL

## NEG2 peptide: Synthetic 22 amino acid peptide corresponding to NEG2, amino acids 817-838 of the CFTR R domain (GLEISEEINEEDLKECFFDDME; listed as Homo sapiens)
[1]; peptide added to cis-intracellular side, 2 mM ATP, 50 units PKA/ml
  change of open probability during stimulation: more than doubles
[1]; [3]
  P2, probability of the intermediate closed component: 0.957
  P3, probability of the long closed component: 0.043
[1]; peptide-stimulated, 4.4 μM NEG2 peptide, −80 mV, closed-burst histogram, delimiter 40 ms
  intermediate closed time τc2: 105 ms
[1]; stimulation in 6 of 7 experiments, cis-intracellular addition
  concentration at which stimulatory response was observed: ≥ 0.44 µM
[1]; three channels, cis-intracellular addition
  concentration at which profound inhibition was observed: ≥ 4.4 µM
[2]
  effect on ΔNEG2-CFTR channel activity: stimulation is observed
